Our source for the strand cleavage complementation on separately pre-bound half-sites; cleavage yield against that of Flp(R191A) with Flp(Y343F)-SUMO, strand cleavage complementation on separately pre-bound half-sites; cleavage yield against that of Flp(R191A) with Flp(Y343F) and strand cleavage complementation on separately pre-bound half-sites; cleavage yield against that of Flp(R191A)-SUMO with Flp(Y343F)-SUMO values is publication PMC6594588.

Assay [1] deals with Flp(Y343F)-SUMO (S. cerevisiae (2-micron plasmid) | not stated) (UniProt P03870).
The target of assay [2] is T1, Flp(Y343F) (S. cerevisiae (2-micron plasmid)) (UniProt P03870).
T1 sequence: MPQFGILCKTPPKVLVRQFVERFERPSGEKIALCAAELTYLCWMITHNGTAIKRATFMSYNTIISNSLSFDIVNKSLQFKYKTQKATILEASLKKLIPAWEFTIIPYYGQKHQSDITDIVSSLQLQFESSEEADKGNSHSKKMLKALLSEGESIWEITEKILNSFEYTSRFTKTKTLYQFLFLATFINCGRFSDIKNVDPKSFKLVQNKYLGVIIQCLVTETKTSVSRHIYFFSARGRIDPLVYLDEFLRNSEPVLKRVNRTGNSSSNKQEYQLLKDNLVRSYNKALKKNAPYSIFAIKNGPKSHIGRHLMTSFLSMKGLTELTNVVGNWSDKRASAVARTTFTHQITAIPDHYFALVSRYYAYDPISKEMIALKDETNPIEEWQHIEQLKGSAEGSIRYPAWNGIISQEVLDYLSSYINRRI

Substance “Flp(R191A)-SUMO (from UniProt P03870 1-423; Q12306 1-96) (enzyme)” had a strand cleavage complementation on separately pre-bound half-sites; cleavage yield against that of Flp(R191A) with Flp(Y343F)-SUMO in assay [1] of 1.6 fold. In assay [2], the strand cleavage complementation on separately pre-bound half-sites; cleavage yield against that of Flp(R191A) with Flp(Y343F) amounted to 1.5 fold and the strand cleavage complementation on separately pre-bound half-sites; cleavage yield against that of Flp(R191A)-SUMO with Flp(Y343F)-SUMO came out at 1.5 fold.
